Experimental data reported in the supplement of paper PMC7877785.
± gives the uncertainty stated by the source.

Test: self-splicing fitness, log relative to wild type (ln ratio); higher = more splicing; Tetrahymena group I intron in knt gene, E. coli kanamycin selection, DiMSum; sequences stand for … in CUCUCU…GGAGGGAAAAGUUAUCAGGCAUGCACCUGGUAGCUAGUCUUUAAACCAAUAGAUUGCAUCGGUUUAAAAGGCAAGACCGUCAAAUUGCGGGAAAGGGGUCAACAGCCGUUCAGUACCAAGUCUCAGGGGAAACUUUGAGAUGGCCUUGCAAAGGGUAUGGUAAUAAGCUGACGGACAUGGUCCUAACCACGCAGCCAAGUCCUAAGUCAACAGAUCUUCUGUUGAUAUGGAUGCAGUUCACAGACUAAAUGUCGGUCGGGGAAGAUGUAUUCUUCUCAUAAGAUAUAGUCGGACCUCUCCUUAAUGGGAGCUAGCGGAUGAAGUGAUGCAACACUGGAGCCGCUGGGAACUAAUUUGUAUGCGAAAGUAUAUUGAUUAGUUUUGGAGUACUCGUGGUCG
Outline: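 A randomised library covering all eight P1ex-region intron nucleotides was built with the intron in the knt kanamycin-resistance gene on pET-22b(+) and held in E. coli BL21(DE3). Cells were grown overnight at 37°C or 30°C on LB agar, with or without 25 μg/mL kanamycin, plus 100 μg/mL carbenicillin, 50 μM IPTG and 0.2% rhamnose, and pooled colonies were amplicon-sequenced on an Illumina HiSeq 2500. DiMSum fitness is the error-weighted combination of wild-type-normalised replicate fold changes, kanamycin versus none.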

| Sequence | self-splicing fitness (ln) (30 °C) | self-splicing fitness (ln) (37 °C) |
| --- | --- | --- |
| UGCAAGCAAUAUUACGGUUG | -2.49 ± 0.11 | -1.88 ± 0.13 |
| UGCAAGCAAUAUUACGUCAC | -2.88 ± 0.47 | -2.27 ± 0.24 |
| UGCAAGCAAUAUUACGUGUC | -1.55 ± 0.09 | -3.56 ± 0.23 |
| UGCAAGCAAUAUUACGUUCC | -3.72 ± 0.33 | -1.43 ± 0.36 |
| UGCCAGCAAUAUUACGAAAG | -2.78 ± 0.13 | -1.4 ± 0.15 |
| UGCCAGCAAUAUUACGACUU | -2.97 ± 0.14 | -1.46 ± 0.13 |
| UGCCAGCAAUAUUACGAGCU | -1.17 ± 0.075 | -0.631 ± 0.098 |
| UGCCAGCAAUAUUACGAUCC | -3.25 ± 0.29 | -1.11 ± 0.42 |
| UGCCAGCAAUAUUACGAUGC | -3.57 ± 0.17 | -2.35 ± 0.21 |
| UGCCAGCAAUAUUACGAUGG | -3.49 ± 0.2 | -2.16 ± 0.18 |
| UGCCAGCAAUAUUACGCACG | -1.48 ± 0.2 | -0.233 ± 0.14 |
| UGCCAGCAAUAUUACGCAGG | -4.43 ± 0.33 | -3.14 ± 0.28 |
| UGCCAGCAAUAUUACGCCAC |  | -2.54 ± 0.29 |
| UGCCAGCAAUAUUACGCCCA | 0.23 ± 0.099 | -0.149 ± 0.13 |
| UGCCAGCAAUAUUACGCGAG | -3.22 ± 0.17 | -2.92 ± 0.21 |
| UGCCAGCAAUAUUACGCGCU | -1.3 ± 0.12 | -0.531 ± 0.17 |
| UGCCAGCAAUAUUACGCGGC |  | -1.85 ± 0.35 |
| UGCCAGCAAUAUUACGCUCA | -0.505 ± 0.061 | -0.207 ± 0.07 |
| UGCCAGCAAUAUUACGCUCU | -1.42 ± 0.079 | 0.293 ± 0.098 |
| UGCCAGCAAUAUUACGGGGC | -3.04 ± 0.16 | -1.74 ± 0.17 |
| UGCCAGCAAUAUUACGGGGG | -3.83 ± 0.17 | -2.9 ± 0.17 |
| UGCCAGCAAUAUUACGGGUA | -2.25 ± 0.15 | -1.24 ± 0.15 |
| UGCCAGCAAUAUUACGGUCA | -0.926 ± 0.081 | -0.0439 ± 0.092 |
| UGCCAGCAAUAUUACGUCUU | -2.22 ± 0.18 | -1.86 ± 0.21 |
| UGCCAGCAAUAUUACGUGCA | -2.55 ± 0.1 | -1.53 ± 0.12 |
| UGCCAGCAAUAUUACGUGGA | -3.33 ± 0.18 | -1.71 ± 0.13 |

| Sequence | self-splicing fitness (ln) (30 °C) | self-splicing fitness (ln) (37 °C) |
| --- | --- | --- |
| UGCCAGCAAUAUUACGUGUG | -1.49 ± 0.052 | -1.14 ± 0.071 |
| UGCCAGCAAUAUUACGUUCC | -1.31 ± 0.31 | -2.25 ± 0.3 |
| UGCGAGCAAUAUUACGAGCG | -2.92 ± 0.33 | -2.07 ± 0.3 |
| UGCGAGCAAUAUUACGAUAC | -2.68 ± 0.28 | -1.45 ± 0.32 |
| UGCGAGCAAUAUUACGAUCC |  | -2.04 ± 0.46 |
| UGCGAGCAAUAUUACGAUCU | -1.84 ± 0.21 | -1.06 ± 0.16 |
| UGCGAGCAAUAUUACGAUGG | -3.43 ± 0.2 | -1.93 ± 0.17 |
| UGCGAGCAAUAUUACGAUUA | -1.56 ± 0.13 | -1.1 ± 0.11 |
| UGCGAGCAAUAUUACGCCUC | -2.78 ± 0.43 |  |
| UGCGAGCAAUAUUACGCUUU | -2.38 ± 0.15 | -3.02 ± 0.28 |
| UGCGAGCAAUAUUACGGAAA | -3.19 ± 0.33 | -2.55 ± 0.3 |
| UGCGAGCAAUAUUACGGAGG |  | -1.17 ± 0.18 |
| UGCGAGCAAUAUUACGGGAA | -3.87 ± 0.38 | -2.5 ± 0.24 |
| UGCGAGCAAUAUUACGGGCC | -2.91 ± 0.28 | -1.54 ± 0.21 |
| UGCGAGCAAUAUUACGGUAA | -2.4 ± 0.17 | -2.22 ± 0.16 |
| UGCGAGCAAUAUUACGUACC | -2.77 ± 0.14 | -2.75 ± 0.25 |
| UGCGAGCAAUAUUACGUACU | -2.58 ± 0.24 | -1.23 ± 0.22 |
| UGCGAGCAAUAUUACGUAGA |  | -0.382 ± 0.22 |
| UGCGAGCAAUAUUACGUCAA |  | -0.906 ± 0.35 |
| UGCGAGCAAUAUUACGUCGU | -3.64 ± 0.25 | -3.4 ± 0.37 |
| UGCGAGCAAUAUUACGUGUC | -4.36 ± 0.33 | -2.01 ± 0.26 |
| UGCGAGCAAUAUUACGUUCG |  | -1.25 ± 0.34 |
| UGCUAGCAAUAUUACGAAAU | -3.79 ± 0.4 | -1.67 ± 0.36 |
| UGCUAGCAAUAUUACGAAGG | -2.13 ± 0.16 | -0.838 ± 0.34 |
| UGCUAGCAAUAUUACGAGAU | -3.93 ± 0.31 | -2.41 ± 0.3 |
| UGCUAGCAAUAUUACGAGCA |  | -2.39 ± 0.39 |

| Sequence | self-splicing fitness (ln) (30 °C) | self-splicing fitness (ln) (37 °C) |
| --- | --- | --- |
| UGCUAGCAAUAUUACGAGUA | -1.34 ± 0.072 | -0.447 ± 0.076 |
| UGCUAGCAAUAUUACGAUCG | 0.18 ± 0.12 | 0.439 ± 0.23 |
| UGCUAGCAAUAUUACGAUGG | -1.52 ± 0.067 | -0.47 ± 0.088 |
| UGCUAGCAAUAUUACGCAAC | -3.07 ± 0.28 | -1.98 ± 0.2 |
| UGCUAGCAAUAUUACGCACC | -1.91 ± 0.34 | -0.242 ± 0.37 |
| UGCUAGCAAUAUUACGCCAU | -3.15 ± 0.28 | -2.65 ± 0.35 |
| UGCUAGCAAUAUUACGCUUC | -1.65 ± 0.17 | -0.347 ± 0.28 |
| UGCUAGCAAUAUUACGGAAU | -3.98 ± 0.39 | -2.97 ± 0.29 |
| UGCUAGCAAUAUUACGGCGA | -0.369 ± 0.22 | -0.302 ± 0.23 |
| UGCUAGCAAUAUUACGGCGG | -1.15 ± 0.16 | -0.887 ± 0.23 |
| UGCUAGCAAUAUUACGGGAA | -1.83 ± 0.15 | -0.95 ± 0.16 |
| UGCUAGCAAUAUUACGGGGC | -3.59 ± 0.29 | -2.69 ± 0.25 |
| UGCUAGCAAUAUUACGGGUG | -1.79 ± 0.098 | -1.3 ± 0.11 |
| UGCUAGCAAUAUUACGGUUA | -0.0068 ± 0.062 | -0.481 ± 0.068 |
| UGCUAGCAAUAUUACGUCGA | -1.18 ± 0.13 | -1.14 ± 0.18 |
| UGCUAGCAAUAUUACGUGAA | -2.87 ± 0.14 | -0.167 ± 0.1 |
| UGCUAGCAAUAUUACGUUGA | -2.84 ± 0.18 | -2.43 ± 0.24 |
| UGCUAGCAAUAUUACGUUUA | -3.11 ± 0.19 | -1.27 ± 0.12 |
| UGGAAGCAAUAUUACGAAGC | -3.64 ± 0.35 | -2.35 ± 0.36 |
| UGGAAGCAAUAUUACGAGAG | -3.79 ± 0.47 | -3.3 ± 0.33 |
| UGGAAGCAAUAUUACGAGCA | -0.526 ± 0.082 | 0.193 ± 0.1 |
| UGGAAGCAAUAUUACGAGUC | -2.78 ± 0.29 | -3.37 ± 0.33 |
| UGGAAGCAAUAUUACGAUUA | -1.1 ± 0.11 | 0.012 ± 0.12 |
| UGGAAGCAAUAUUACGCAAG |  | -1.83 ± 0.37 |
| UGGAAGCAAUAUUACGCAAU | -1.81 ± 0.24 | -0.664 ± 0.24 |
| UGGAAGCAAUAUUACGCAGA | -2.85 ± 0.21 | -0.966 ± 0.14 |
